Data on 13 molecules can be found in patent publication US20190367631A1 (Regeneron, published 2019).

Assay [1] addresses T1, mouse MSR1 on RAW264.7 cells (mouse, UniProt P30204 1-458).
T1 construct: whole, on cells; also called MSR1 positive RAW264.7 cells
T1 sequence (looked up): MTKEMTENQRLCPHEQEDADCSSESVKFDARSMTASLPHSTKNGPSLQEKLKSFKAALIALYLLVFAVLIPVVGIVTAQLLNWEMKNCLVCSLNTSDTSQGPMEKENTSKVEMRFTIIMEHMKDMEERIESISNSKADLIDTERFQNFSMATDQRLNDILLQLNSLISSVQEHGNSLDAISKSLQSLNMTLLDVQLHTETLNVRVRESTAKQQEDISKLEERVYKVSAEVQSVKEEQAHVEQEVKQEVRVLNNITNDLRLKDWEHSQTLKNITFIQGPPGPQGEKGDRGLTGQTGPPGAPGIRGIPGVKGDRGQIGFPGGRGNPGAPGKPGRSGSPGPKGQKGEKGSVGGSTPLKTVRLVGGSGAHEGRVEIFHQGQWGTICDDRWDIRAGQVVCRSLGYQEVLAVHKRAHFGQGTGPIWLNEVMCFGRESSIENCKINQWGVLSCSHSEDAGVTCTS
The assay can be described thus: flow cytometry, RAW264.7 cells.
Description: To block binding to Fc receptors, RAW264.7 cells were incubated for 30 minutes at 4° C. with 500 pg/mL mouse IgG (Jackson ImmunoResearch, Cat #015-000-003) diluted in staining buffer, while B16F10.9 cells remained in staining buffer. […] The signal to noise (S/N) was determined by calculating the ratio of the anti-MSR1 antibodies or the control antibodies MFI to the unstained sample MFI (Table 11).

The target in assay [2] is T2, human MSR1 extracellular domain expressed with a N-terminal nonahistidine tag (His9-hMSR1); R&D Systems, Cat … (human, UniProt P21757 77-451).
T2 construct: extracellular domain; also called His-hMSR1; 9xHis-hMSR1; not shown: N-terminal nonahistidine tag
T2 sequence (looked up): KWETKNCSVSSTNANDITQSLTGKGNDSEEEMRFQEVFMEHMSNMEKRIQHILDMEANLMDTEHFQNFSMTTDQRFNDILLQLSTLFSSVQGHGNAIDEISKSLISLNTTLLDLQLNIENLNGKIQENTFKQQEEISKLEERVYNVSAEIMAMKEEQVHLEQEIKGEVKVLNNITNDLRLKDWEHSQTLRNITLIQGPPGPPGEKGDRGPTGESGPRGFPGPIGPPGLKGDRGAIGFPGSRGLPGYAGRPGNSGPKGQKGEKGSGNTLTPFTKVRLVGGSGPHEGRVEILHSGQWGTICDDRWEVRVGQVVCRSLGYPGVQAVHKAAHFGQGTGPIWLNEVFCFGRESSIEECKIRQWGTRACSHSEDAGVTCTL
The assay can be described thus: SPR Biacore, 37 C, antibody captured.

The target of assay [3] is T3, monkey MSR1 extracellular domain expressed with a N-terminal hexahistidine-myc-myc tag (HMM-mfMSR1) (monkey (Macaca fascicularis)).
T3 chain: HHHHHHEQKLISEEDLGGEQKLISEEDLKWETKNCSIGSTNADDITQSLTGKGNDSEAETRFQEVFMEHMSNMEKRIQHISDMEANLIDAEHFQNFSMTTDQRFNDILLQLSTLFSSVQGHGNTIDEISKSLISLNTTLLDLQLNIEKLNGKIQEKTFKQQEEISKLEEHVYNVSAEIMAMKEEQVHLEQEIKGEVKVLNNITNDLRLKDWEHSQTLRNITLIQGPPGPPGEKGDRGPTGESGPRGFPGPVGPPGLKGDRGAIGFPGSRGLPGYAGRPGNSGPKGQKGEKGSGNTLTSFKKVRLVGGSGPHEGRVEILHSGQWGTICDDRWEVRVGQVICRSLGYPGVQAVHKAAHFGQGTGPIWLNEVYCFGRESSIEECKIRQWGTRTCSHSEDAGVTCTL
The assay can be described thus: SPR Biacore, 37 C, antibody captured.
Description: (§1) Binding affinities and kinetic constants of human anti-MSR1 antibodies for different MSR1 reagents were determined by real-time surface plasmon resonance (Biacore 4000). All binding studies were performed in 10 mM HEPES, 150 mM NaCl, 3 mM EDTA, and 0.05% v/v Surfactant Tween-20, pH 7.4 (HBS-ET) running buffer at 25° C. and 37° C.
(§2) The association rate (kₐ) and dissociation rate (kd) were determined by fitting the real-time binding sensorgrams to a 1:1 binding model with mass transport limitation using Scrubber 2.0c curve-fitting software. Binding dissociation equilibrium constant (KD) and dissociative half-life (t½) were calculated from the kinetic rates as:

Assay [4] concerns the target T2, human MSR1 extracellular domain …. Briefly: SPR Biacore, 25 C, antibody captured.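 Further: rates from 1:1 fit with mass transport limitation of real-time sensorgrams, HEPES-buffered saline with EDTA and Tween-20 at pH 7.4, KD and t½ derived from the kinetic rates.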
Description: as §1, §2
Assay [5] has as its target T3, monkey MSR1 extracellular domain …. Briefly: SPR Biacore, 25 C, antibody captured.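 Further: rates from 1:1 fit with mass transport limitation of real-time sensorgrams, HEPES-buffered saline with EDTA and Tween-20 at pH 7.4, KD and t½ derived from the kinetic rates.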
Description: as §1, §2
Assay [6] has as its target T4, full length human MSR1 with a C-terminal Myc tag, on HEK293.Myc.hMSR1 cells (human, UniProt P21757 1-451). On % Inhibition of Dil-Acetylated LDL uptake: test concentration or dose not given here. On % Inhibition of Dil-Oxidized LDL uptake: test concentration or dose not given here.
T4 sequence (looked up): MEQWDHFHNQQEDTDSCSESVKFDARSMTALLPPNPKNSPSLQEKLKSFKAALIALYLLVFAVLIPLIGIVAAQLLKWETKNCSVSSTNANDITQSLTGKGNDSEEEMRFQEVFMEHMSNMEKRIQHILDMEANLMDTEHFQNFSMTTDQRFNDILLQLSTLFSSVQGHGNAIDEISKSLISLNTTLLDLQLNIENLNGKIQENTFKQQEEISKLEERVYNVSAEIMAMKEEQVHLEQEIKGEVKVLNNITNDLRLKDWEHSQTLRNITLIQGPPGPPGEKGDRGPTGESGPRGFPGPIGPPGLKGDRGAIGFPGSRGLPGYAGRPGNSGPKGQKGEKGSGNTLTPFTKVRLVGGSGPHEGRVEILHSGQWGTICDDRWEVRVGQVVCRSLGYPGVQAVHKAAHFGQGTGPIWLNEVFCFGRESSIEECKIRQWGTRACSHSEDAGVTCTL
Briefly: cell-based or functional assay.

B1: H1H27778P2-N297Q (antibody, human IgG1, V domains shown)
VH: EVQLVESGGGLEQPGGSLRLSCAASGFTFSSYAMSWVRQAPGKGLEWVSVISGSGGYTNYADSVKGRFTISRDNSKNTLYLQMNRLRAEDSAVYYCARHNWNYDYYGMDVWGQGTTVTVSS
VL: not shown
notes: human IgG1 Fc with N297Q; also called H1H27778P-N297Q
With B1, the “S/N (MFI over unstained MFI)” value in assay [1] turned out to be 1.

B2: H1H27771P2-N297Q (antibody, human IgG1, V domains shown)
VH: EVQLVESGGGLVQPGGSLRLSCAASGFTFSSYGMNWVRQAPGKGLEWVSVISGSGGSTYYADSVKGRFTISRDNSKNTLYLQMNSLRAEDTAVYYCAKDRWTYYYDSSGSPFDYWGQGTLVTVSS
VL: not shown
notes: human IgG1 Fc with N297Q; also called H1H27771P-N297Q
For the molecule B2, the “S/N (MFI over unstained MFI)” value in assay [1] was 1.

B3: H1H27749P-N297Q (antibody, human IgG1, V domains shown)
VH: QVQLQESGPGLVKPSETLSLTCTVSDGSISSYYWSWIRQPPGRGLEWIGFIYYSGSTSYNPSLKSRVTISVDTSMSQFSLKLRSVTAADTAVYYCARGSPFDYWGPGTLVTVSS
VL: EIVLTQSPGTLSLSPGERATLSCRASQSVSSSYLAWYQQRPGQAPSLLISGASRRATGIPDRFSGSGSGTDFTLTIRRLEPEDFAMYYCQQYGSSPPTFGGGTKVEIKR
notes: human IgG1 Fc with N297Q
For the molecule B3, in assay [1], the MFI is 3790 MFI and the “S/N (MFI over unstained MFI)” value came out at 1.

B4: H1H27761P-N297Q (antibody, V domains shown)
VH: EVQLVESGGDLVQPGGSLRLSCSASGFTFNIYAMSWVRQAPGKGLEWVSGISGSGGSTYYADSVKGRFTISRDNSKNTLYFQMNSLRVEDTAVYYCAKKISSSSYYYYAMDVWGQGTTVTVSS
VL: not shown
notes: Human IgG1 Fc with N297Q; tied by the numerical identifier; also called H1H27761P2-N297Q; H1H27761P2
Take B4: in assay [2], the Kd was determined as 3.26 nM, the koff was 0.00222 s⁻¹, the kon amounted to 681000 M⁻¹ s⁻¹ and the t½ was 5 min. In assay [3], this molecule showed an equilibrium dissociation constant (Kd) of 2.32 nM, a koff of 0.00214 s⁻¹, an on-rate (kon) of 920000 M⁻¹ s⁻¹ and a t½ of 5 min. In assay [4], the Kd was determined as 1.63 nM, the koff was found to be 0.00051 s⁻¹, the association rate constant (kon) came to 312000 M⁻¹ s⁻¹ and the t½ was 23 min. In assay [5], this molecule yielded a Kd of 1.88 nM, a koff of 0.000597 s⁻¹, an on-rate (kon) of 318000 M⁻¹ s⁻¹ and a t½ of 19 min.

B5: H2bM21234N (antibody, V domains shown)
VH: QVQLQESGPGLVKPSETLSLTCTVTGGSISRNYWSWIRQPPGKGLEWIGYIYYSGSIDYNPSLKSRVTISVDTSKNQFSLKLSSMTAADTAVYYCARDRWNWKYGMDVWGQGTTVIVSS
VL: EIVLTQSPGTLSLSPGERATLSCRASQTVRNNYLAWYHQKPGQAPRLLIYGASSRATGIPDRFSGSGSGTDFTLTISRLEPEDFTVYYCHQYGNSPWTFGQGTKMEIKR
In the case of B5, in assay [6], the “% Inhibition of Dil-Acetylated LDL uptake” value was determined as 19%, the “% Inhibition of Dil-Oxidized LDL uptake” value was found to be 61%, the “IC50 of Dil-Acetylated LDL uptake inhibition” value is 1.8 nM and the “IC50 of Dil-Oxidized LDL uptake inhibition” value stood at 4.5 nM.

B6: H1H27773P2-N297Q (antibody, human IgG1, V domains shown)
VH: EVQLVESGGGLVQPGGSLRLSCAASGFTFSSYAMNWVRQAPGKGLEWVSAISGSGDSTYYADSVKGRFTISRDNSRTTLSLQLNSLRAEDTAVYYCAKDRLLWFGELGSPFHYWGQGTLVTVSS
VL: not shown
notes: human IgG1 Fc with N297Q; also called H1H27773P-N297Q
In the case of B6, in assay [1], the “S/N (MFI over unstained MFI)” value was determined as 1.

B7: H1H27747P-N297Q (antibody, human IgG1, V domains shown)
VH: QVQLVESGGAVVQPGRSLRLSCAASGFTFSYYGMHWVRQAPGKGLEWVAVISYDGSKKYYADSVKGRFTISRDNSKNTLYLQMNSLRAEDTAVYYCAKDLTVDFYYGMDVWGQGTTVTVSS
VL: DIQMTQSPSSVSASVGDRVTITCRASQGISSWLAWYQQKPGKAPKLLIYATSSLQSGAPSRFSGSGSGTDFTLTISSLQPEDFATYFCQQANSFPYTFGQGTKLEIKR
notes: human IgG1 Fc with N297Q
For the molecule B7, in assay [1], the MFI turned out to be 3630 MFI and the “S/N (MFI over unstained MFI)” value amounted to 1.

B8: H1H27754P-N297Q (antibody, human IgG1, V domains shown)
VH: EVQLVESGGGLVQPGGSLRLSCAASGFTFRTYAMTWVRQAPGKGLDWVSAITGDGGNTYYADSVKGRFTISRDNSKNTLYLQMNSLRAEDTAIYYCAKDQRFSFALYYFDYWGQGTLVTVSS
VL: DIQMTQSPSSVSASVGDRVTITCRASQGISSWLAWYQQKPGNAPKLLIYAAFSLQSGVPSRFSGSGSGTDFTLTISSLQPEDFATYYCQQANNFPWTFGQGTKVEIKR
notes: human IgG1 Fc with N297Q
In the case of B8, in assay [1], the MFI was 5410 MFI and the “S/N (MFI over unstained MFI)” value came to 1.

B9: H1H27736P-N297Q (antibody, human IgG1, V domains shown)
VH: EVQLVESGGGLVQPGGSLRLSCAASGFTFSSYAMSWVRQAPGKGLEWVSSISGSGDSTFYTDSVKGRFTISRDISKNTLYLQMNSLRAEDTAVYYCAKDRLLWFGDLISPFHYWGQGTLVTVSS
VL: EIVLTQSPGTLSLSPGERATLSCRASQSVSNIYLAWYQQKPAQAPRLLIYGASSRATGIPDRFSVSGSGTDFTLTISRLEPEDFAVYYCQQYGSSPRTFGQGTKVEIKR
notes: human IgG1 Fc with N297Q
As to B9, in assay [1], the MFI is 3550 MFI and the “S/N (MFI over unstained MFI)” value turned out to be 1.

B10: H1H27756P-N297Q (antibody, human IgG1, V domains shown)
VH: QVQLVESGGGVVQPGRSLRLSCAASGFTFSNYDMHWVRQAPGKGLEWMAVISYDGINKYYADSVKGRFTISRDNSKNTLYLQMNSLRAEDTAVYYCAKGTYSWYFDLWGRGTLVTVSS
VL: not shown
notes: human IgG1 Fc with N297Q
In the case of B10, in assay [6], the “% Inhibition of Dil-Acetylated LDL uptake” value was 42%, the “% Inhibition of Dil-Oxidized LDL uptake” value was 76% and the “IC50 of Dil-Acetylated LDL uptake inhibition” value is greater than 100 nM. Also, in assay [1], the MFI came to 4570 MFI and the “S/N (MFI over unstained MFI)” value came to 1.

B11: H2aM21235N (antibody, mouse IgG2a, V domains shown)
VH: EVQLVESGGGLVQPGGSLRLSCAASGFTFSDHYMDWVRQAPGKGLEWVGRTRNKANSYTTEYAASVSGRFTISRDDSKNSLYLQMNSLKTEDTAVYYCTRAGIIGTLFDYWGQGTLVTVSS
VL: DIQMTQSPSSLSASVGDRVTITCRASQIIGRYLNWFQQKPGKVPKLLIYAASSLQRGVPSRFSGSGSGTDFTLTISSLQPEDFATYYCQQSYNTPPITFGQGTRLEIKR
For B11, in assay [6], the “% Inhibition of Dil-Acetylated LDL uptake” value was 24%, the “% Inhibition of Dil-Oxidized LDL uptake” value is 64% and the “IC50 of Dil-Acetylated LDL uptake inhibition” value was greater than 100 nM.

B12: H1H21231N-N297Q (antibody, human IgG1, V domains shown)
VH: EVQLVESGGGLVQPGGSLRLSCAASGFTFSDHYMDWVRQAPGKGLEWVGRTRNKANSHTTEYTASVTGRFTISRDDSRNSLYLQMNSLKTEDTAVYYCVRAGIIGTLFDYWGQGTLVTVSS
VL: DIQMTQFPSSLSASVGDRVTITCRASQSISSFLNWFQQKPGKAPKFLIYAASSLQSGVPSRFSGSGSGTDFTLTISSLQPEDFATYYCQQSYSSPPITFGQGTRLEIKR
notes: human IgG1 Fc with N297Q point mutation
With B12, in assay [1], the MFI was determined as 3580 MFI and the “S/N (MFI over unstained MFI)” value was 1.

B13: H1H27760P2-N297Q (antibody, human IgG1, V domains shown)
VH: EVQLVESGGGLVQPGRSLRLSCAASGFTFDAYAMHWVRQAPGKGLEWVSGISWNSGSIGYADSVKGRFTISRDNAKNSLYLQMNSLREEDTALYYCAKDKILELYYYGMDVWGQGTTVTVSS
VL: not shown
notes: human IgG1 Fc with N297Q; also called H1H27760P-N297Q
With B13, in assay [6], the “% Inhibition of Dil-Acetylated LDL uptake” value was 46%, the “% Inhibition of Dil-Oxidized LDL uptake” value was 70%, the “IC50 of Dil-Acetylated LDL uptake inhibition” value was found to be 2.6 nM and the “IC50 of Dil-Oxidized LDL uptake inhibition” value worked out at 4.9 nM. In assay [1], the MFI stood at 3430 MFI and the “S/N (MFI over unstained MFI)” value amounted to 1.
